The values that follow come from patent US11572572B2, “A138T mutation-containing plant EPSPS mutant, and encoding gene and application thereof” (GEVOTO LLC, priority 2017, dated 2023).

Assay [1] deals with double-knockout Escherichia coli (EDCE). The experiment in a line: Growth of double-knockout E. coli (EDCE) transformed with Triticum aestivum EPSPS genes in glyphosate media (Example 7). The class given is cell-based. The protocol: An Escherichia coli strain transformed with the Triticum aestivum EPSPS mutant-encoding gene according to Example 4 was used as an experimental group.
An Escherichia coli strain transformed with a wild-type Triticum aestivum EPSPS-encoding gene (SEQ ID NO: 20, encoding wild-type Triticum aestivum EPSPS set forth in SEQ ID NO: 10 was used as Control Group 1.
The growth statuses of the transformed Escherichia coli strains in media containing different concentrations of glyphosate (0, 1, 20 mM) were detected to verify the glyphosate resistance of the Triticum aestivum EPSPS mutant-encoding gene and the encoded Triticum aestivum EPSPS mutant in Escherichia coli. Here, the Escherichia coli strain used was double-knockout Escherichia coli (Escherichia coli strain DH5a from which an EPSPS gene and a C-P Lyase gene were knocked out, named EDCE, which may be prepared by a method with reference to Chinese Patent Application. 2016103256926).

Assay [2] relates to transgenic rice seedlings. Put plainly: Glyphosate resistance of EPSPS mutants in transgenic rice sprayed with glyphosate (Example 8). The assay is classed as in vivo, rice (Nipponbare).
Where [3] appears, read: 1X dose glyphosate (1,060 g/ha), day 10 after spraying.
[4] abbreviates: 2X dose glyphosate (2,120 g/ha) on survivors of 1X, after another 10 days.
The mark [5] stands for this setting: 5X dose glyphosate (5,300 g/ha) on survivors of 2X, after additional 10 days.
Setting [6] is: 20X dose glyphosate (21,200 g/ha) on survivors of 5X, after further 10 days.

B1: T2: Triticum aestivum EPSPS mutant containing G113(96)A, P118(101)S, and A157(138)T (SEQ ID NO: 11), gene SEQ ID NO: 22; experimental group of Example 7 (protein)
chain: MATSVAAPAAPAGAEEVVLQPIREISGAVQLPGSKSLSNRILLLSALSEGTTVVDNLLNSEDVHYMLEALEALGLSVEADKVAKRAVVVGCGGRFPVEKDAKEEVKLFLGNAATAMRSLTAAVVAAGGNATYVLDGVPRMRERPIGDLVVGLQQLGTDVDCFLGTNCPPVRINGKGGLPGGKVKLSGSISSQYLSSLLMAAPLALEDVEIEIIDKLISVPYVEMTLKLMEHFGVTAEHSDSWDRFYIKGGQKYKSPGNAYVEGDASSASYFLAGAAITGGTVTVEGCGTTSLQGDVKFAEVLEMMGAKVTWTDTSVTVTGPPRQPFGRKHLKAVDVNMNKMPDVAMTLAVVALFADGPTAIRDVASWRVKETERMVAIRTELTKLGATVEEGPDYCIITPPEKLNITAIDTYDDHRMAMAFSLAACAEVPVTIRDPGCTRKTFPNYFDVLSTFVKN
modifications: Triticum aestivum EPSPS mutant with mutations G113(96)A, P118(101)S, and A157(138)T
Take B1: the “glyphosate concentration of medium in which the E. coli strain was kept in a growing state” value in assay [1] is given as “up to 20 mM”. Moreover, in assay [2] (setting [3]), the “% ++&+++ (percentage of moderately and highly glyphosate resistant plants in total plants observed)” value came to 75.0%; the “plant number with resistance + (low glyphosate resistant)” value was 2; the “plant number with resistance ++ (moderately glyphosate resistant)” value was found to be 4; the “plant number with resistance +++ (highly glyphosate resistant)” value (from here on “plant number with resistance +++”) came to 20. Besides, in assay [2] (setting [4]), the “% ++&+++ (percentage of moderately and highly glyphosate resistant plants in total plants observed)” value is 59.4%; the “plant number with resistance + (low glyphosate resistant)” value is 3; the “plant number with resistance ++ (moderately glyphosate resistant)” value was found to be 2; the “plant number with resistance +++” value was 17. Further, in assay [2] (setting [4]), the “plant number with resistance − (non-glyphosate resistant, withered or dead)” value turned out to be 10. Moreover, in assay [2] (setting [5]), the “% ++&+++ (percentage of moderately and highly glyphosate resistant plants in total plants observed)” value was 50.0%; the “plant number with resistance + (low glyphosate resistant)” value is 5; the “plant number with resistance ++ (moderately glyphosate resistant)” value is 14; the “plant number with resistance +++” value worked out at 2. Moreover, the “plant number with resistance − (non-glyphosate resistant, withered or dead)” value in assay [2] (setting [5]) was found to be 11. In assay [2] (setting [6]), the “% ++&+++ (percentage of moderately and highly glyphosate resistant plants in total plants observed)” value worked out at 21.9%; the “plant number with resistance + (low glyphosate resistant)” value was determined as 11; the “plant number with resistance ++ (moderately glyphosate resistant)” value was determined as 7; the “plant number with resistance +++” value is reported as 0. Further, the “plant number with resistance − (non-glyphosate resistant, withered or dead)” value in assay [2] (setting [6]) stood at 14. The “level of glyphosate resistance of transformed rice seedlings compared with the mutant lacking the A138T mutation (R4 for R5, T1 for T2) (in words)” value in assay [2] (each of 1×, 2×, 5×, and 20× glyphosate doses) was “higher levels of glyphosate resistance”.
